Laboratory results published in IntAct's records for PubMed 28966017.

B1: Drebrin (Homo sapiens), Q16643 (parent)
chain: MAGVSFSGHRLELLAAYEEVIREESAADWALYTYEDGSDDLKLAASGEGGLQELSGHFENQKVMYGFCSVKDSQAALPKYVLINWVGEDVPDARKCACASHVAKVAEFFQGVDVIVNASSVEDIDAGAIGQRLSNGLARLSSPVLHRLRLREDENAEPVGTTYQKTDAAVEMKRINREQFWEQAKKEEELRKEEERKKALDERLRFEQERMEQERQEQEERERRYREREQQIEEHRRKQQTLEAEEAKRRLKEQSIFGDHRDEEEETHMKKSESEVEEAAAIIAQRPDNPREFFKQQERVASASAGSCDVPSPFNHRPGSHLDSHRRMAPTPIPTRSPSDSSTASTPVAEQIERALDEVTSSQPPPLPPPPPPAQETQEPSPILDSEETRAAAPQAWAGPMEEPPQAQAPPRGPGSPAEDLMFMESAEQAVLAAPVEPATADATEIHDAADTIETDTATADTTVANNVPPAATSLIDLWPGNGEGASTLQGEPRAPTPPSGTEVTLAEVPLLDEVAPEPLLPAGEGCATLLNFDELPEPPATFCDPEEVEGESLAAPQTPTLPSALEELEQEQEPEPHLLTNGETTQKEGTQASEGYFSQSQEEEFAQSEELCAKAPPPVFYNKPPEIDITCWDADPVPEEEEGFEGGD
partner: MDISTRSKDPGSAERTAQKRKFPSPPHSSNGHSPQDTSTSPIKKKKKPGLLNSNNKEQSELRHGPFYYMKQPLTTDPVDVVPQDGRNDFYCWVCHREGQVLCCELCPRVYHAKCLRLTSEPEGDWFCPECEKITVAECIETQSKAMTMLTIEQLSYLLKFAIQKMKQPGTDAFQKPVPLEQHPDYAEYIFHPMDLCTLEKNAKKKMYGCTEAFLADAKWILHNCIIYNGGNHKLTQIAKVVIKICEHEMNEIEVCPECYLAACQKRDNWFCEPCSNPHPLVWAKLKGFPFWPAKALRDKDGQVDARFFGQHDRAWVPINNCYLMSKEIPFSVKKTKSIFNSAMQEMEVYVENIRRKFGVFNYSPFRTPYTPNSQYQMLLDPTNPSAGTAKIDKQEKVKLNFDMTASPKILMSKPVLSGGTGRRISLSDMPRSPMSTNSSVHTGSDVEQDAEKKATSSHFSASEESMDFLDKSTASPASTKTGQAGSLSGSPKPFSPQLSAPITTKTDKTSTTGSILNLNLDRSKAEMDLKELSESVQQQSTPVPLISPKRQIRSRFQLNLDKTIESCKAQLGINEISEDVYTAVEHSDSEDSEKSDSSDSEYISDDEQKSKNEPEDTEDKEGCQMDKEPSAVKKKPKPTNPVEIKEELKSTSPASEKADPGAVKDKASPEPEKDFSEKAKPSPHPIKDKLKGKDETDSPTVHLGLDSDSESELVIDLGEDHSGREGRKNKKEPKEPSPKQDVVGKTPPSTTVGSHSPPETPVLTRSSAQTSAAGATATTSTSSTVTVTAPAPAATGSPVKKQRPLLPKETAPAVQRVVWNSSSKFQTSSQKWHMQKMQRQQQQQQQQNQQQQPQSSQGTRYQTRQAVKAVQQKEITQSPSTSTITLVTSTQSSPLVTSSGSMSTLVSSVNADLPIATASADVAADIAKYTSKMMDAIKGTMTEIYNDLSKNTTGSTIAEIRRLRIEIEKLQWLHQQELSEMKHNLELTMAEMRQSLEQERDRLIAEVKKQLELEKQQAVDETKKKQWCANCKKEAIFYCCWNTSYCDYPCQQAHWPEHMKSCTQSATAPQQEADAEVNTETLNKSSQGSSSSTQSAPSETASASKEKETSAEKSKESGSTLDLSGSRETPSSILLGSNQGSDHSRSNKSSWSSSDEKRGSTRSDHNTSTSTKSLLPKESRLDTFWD
B2: MYND-type zinc finger-containing chromatin reader ZMYND8 (Homo sapiens), Q9ULU4 (parent)
chain: B1 partner
partner: B1 chain

Variants of: B1
Conditions: with zmyd8_human ZMYND8, Q9ULU4
For R10G, the “effect of a mutation on the interaction” value was “disrupting interaction strength”.

Variants of: B2
Conditions: with dreb_human DBN1, Q16643
H311A was tested, and the “effect of a mutation on the interaction” value was “disrupting interaction strength”.
